Laboratory results reported in the supplement of paper PMC6757056.
± gives the standard deviation of the averaged measurements.

B1: library; a variant is named by its letters at N, in order (parent)
chain: GCUGUCACCGGUGCUUGGUACGUUAUAUUCAGCCGGUCUGAUGAGUCUNNNNNNAGACGAAACAGC

Tests used:
(6R,S)-folinic acid [1] = variants of: B1; test: normalized RNA/DNA level without ligand (relative to sTRSVctl = 100) (log10 (% of sTRSVctl)); HEK293T overexpressing SLC46A1; higher = less ribozyme self-cleavage, higher mRNA level; conditions: without (6R,S)-folinic acid; ligand present: no
Method in brief: (§1)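 Library plasmids carrying ribozyme switches linked to mCherry, or to eGFP in some ligand experiments, were transfected into HEK293T at 4 µg per 6-well well, with any ligand added 1 h earlier. Seventy-two hours on, total RNA was extracted with EDTA and reverse-transcribed, amplified, barcoded and sequenced. RNA level was RNA over DNA reads normalized to a spiked-in non-cleaving sequence or to the top sequences, then scaled and log-transformed. The top set was 25 sequences, the transform was ×100 and log10, and sequences needed ≥100 DNA reads.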

(6R,S)-folinic acid [2] = variants of: B1; test: normalized RNA/DNA level with ligand (relative to sTRSVctl = 100) (log10 (% of sTRSVctl)); HEK293T overexpressing SLC46A1; ligand concentration (+) RNA-Seq: 6 mM; higher = less ribozyme self-cleavage, higher mRNA level; conditions: with (6R,S)-folinic acid; ligand present: yes
Method in brief: as §1

Variant | normalized RNA/DNA level without ligand (log10) ((6R,S)-folinic acid [1]) | normalized RNA/DNA level with ligand (log10) ((6R,S)-folinic acid [2])
GCUGUCACCGGUGCUUGGUACGUUAUAUUCAGCCGGUCUGAUGAGUCUGUCGUUAGACGAAACAGC [GUCGUU] | 2.029 ± 0.018 | 2.02 ± 0.056
GCUGUCACCGGUGCUUGGUACGUUAUAUUCAGCCGGUCUGAUGAGUCUCCCUAUAGACGAAACAGC [CCCUAU] | 2.0351 ± 0.0014 | 2.05 ± 0.038
GCUGUCACCGGUGCUUGGUACGUUAUAUUCAGCCGGUCUGAUGAGUCUGAAACAAGACGAAACAGC [GAAACA] | 2.017 ± 0.018 | 2.04 ± 0.026
GCUGUCACCGGUGCUUGGUACGUUAUAUUCAGCCGGUCUGAUGAGUCUGGCUUAAGACGAAACAGC [GGCUUA] | 2.0768 ± 0.0012 | 2.03 ± 0.03
GCUGUCACCGGUGCUUGGUACGUUAUAUUCAGCCGGUCUGAUGAGUCUGCUUUGAGACGAAACAGC [GCUUUG] | 1.995 ± 0.015 | 2.02 ± 0.053
GCUGUCACCGGUGCUUGGUACGUUAUAUUCAGCCGGUCUGAUGAGUCUAUGUUUAGACGAAACAGC [AUGUUU] | 1.976 ± 0.015 | 2.004 ± 0.011
GCUGUCACCGGUGCUUGGUACGUUAUAUUCAGCCGGUCUGAUGAGUCUCCGGAAAGACGAAACAGC [CCGGAA] | 2.005 ± 0.0036 | 2.01 ± 0.052
GCUGUCACCGGUGCUUGGUACGUUAUAUUCAGCCGGUCUGAUGAGUCUCUCCUUAGACGAAACAGC [CUCCUU] | 2.014 ± 0.016 | 2 ± 0.027
GCUGUCACCGGUGCUUGGUACGUUAUAUUCAGCCGGUCUGAUGAGUCUCCUUGUAGACGAAACAGC [CCUUGU] | 2.01 ± 0.04 | 2.005 ± 0.013
GCUGUCACCGGUGCUUGGUACGUUAUAUUCAGCCGGUCUGAUGAGUCUUAAUUAAGACGAAACAGC [UAAUUA] | 1.991 ± 0.0035 | 2.01 ± 0.048
GCUGUCACCGGUGCUUGGUACGUUAUAUUCAGCCGGUCUGAUGAGUCUACUCUGAGACGAAACAGC [ACUCUG] | 1.925 ± 0.018 | 2 ± 0.025
GCUGUCACCGGUGCUUGGUACGUUAUAUUCAGCCGGUCUGAUGAGUCUCAUGACAGACGAAACAGC [CAUGAC] | 1.98 ± 0.024 | 2 ± 0.012
GCUGUCACCGGUGCUUGGUACGUUAUAUUCAGCCGGUCUGAUGAGUCUGCCGCGAGACGAAACAGC [GCCGCG] | 2.0553 ± 0.00018 | 2.092 ± 0.0094
GCUGUCACCGGUGCUUGGUACGUUAUAUUCAGCCGGUCUGAUGAGUCUGAGCCCAGACGAAACAGC [GAGCCC] | 2.023 ± 0.013 | 2.02 ± 0.053
GCUGUCACCGGUGCUUGGUACGUUAUAUUCAGCCGGUCUGAUGAGUCUCUUUUAAGACGAAACAGC [CUUUUA] | 1.988 ± 0.012 | 2 ± 0.052
GCUGUCACCGGUGCUUGGUACGUUAUAUUCAGCCGGUCUGAUGAGUCUUAUAUAAGACGAAACAGC [UAUAUA] | 1.944 ± 0.0099 | 2 ± 0.034
GCUGUCACCGGUGCUUGGUACGUUAUAUUCAGCCGGUCUGAUGAGUCUGGGCAAAGACGAAACAGC [GGGCAA] | 2.046 ± 0.013 | 2.05 ± 0.027
GCUGUCACCGGUGCUUGGUACGUUAUAUUCAGCCGGUCUGAUGAGUCUACCCCAAGACGAAACAGC [ACCCCA] | 2.02 ± 0.011 | 2 ± 0.05
GCUGUCACCGGUGCUUGGUACGUUAUAUUCAGCCGGUCUGAUGAGUCUUCACCCAGACGAAACAGC [UCACCC] | 2.05 ± 0.025 | 2.04 ± 0.037
GCUGUCACCGGUGCUUGGUACGUUAUAUUCAGCCGGUCUGAUGAGUCUCAGACUAGACGAAACAGC [CAGACU] | 2.048 ± 0.0077 | 2.011 ± 0.0042
GCUGUCACCGGUGCUUGGUACGUUAUAUUCAGCCGGUCUGAUGAGUCUCAGCAGAGACGAAACAGC [CAGCAG] | 1.962 ± 0.015 | 2.03 ± 0.052
